Numbering of substitutions follows the chain as printed. No end group written: not given here. *: point of attachment. Biotin = O=C1N[C@H]2[C@H](CS[C@H]2CCCCC(=O)*)N1

B1: S-22-3 Fab (Fab, V domains shown)
VH: QVQLVQSGAEVKKPGSSVKVSCKASGGTFRSYAISWVRQAPGQGLEWMGGIIPGFGTAWYAQKFQGRVTITADESTSTAYMELSSLRSEDTAVYYCARQGRKTGYYYYYGMDVWGQGTTVTVSS
VL: DIQMTQSPSTLSASVGDRVTITCRASQSISSWLAWYQQKPGKAPKLLIYKASSLESGVPSRFSGSGSGTEFTLTISSLQPDDFATYYCQQADGHITFGGGTKVEIK
notes: Fab by papain digestion
B2: S-22-7 Fab (Fab, V domains shown)
VH: B1 VH with R30S, T57R, W59N
VL: B1 VL
notes: Fab by papain digestion
B3: S-22-9 Fab (Fab, V domains shown)
VH: B1 VH with S31N, G54I, F55G, T57W, W59N
VL: B1 VL
notes: Fab by papain digestion
B4: S-15-3 Fab (Fab, V domains shown)
VH: QVQLVQSGAEVKKPGASVKVSCKASGYTFTSTYMSWVRQAPGQGLEWMGIINPYGGSTSYAQKFQGRVTMTRDTSTSTVYMELSSLRSEDTAVYYCARDPSGIAAAGPASRYYYGMDVWGQGTTVTVSS
VL: EIVMTQSPATLSVSPGERATLSCRASQSVSSNLAWYQQKPGQAPRLLIYGASTRATGIPARFSGSGSGTEFTLTISSLQSEDFAVYYCQQARLGPWTFGGGTKVEIK
notes: Fab by papain digestion
B5: S-15-14 Fab (Fab, V domains shown)
VH: B4 VH with T32Q
VL: B4 VL
notes: Fab by papain digestion
B6: S-2-11 Fab (Fab, V domains shown)
VH: QVQLVQSGAEVKKPGASVKVSCKASGYTFLAYYMHWVRQAPGQGLEWMGWINPSWGSTSYAQKFQGRVTMTRDTSISTAYMELSRLRSDDTAVYYCARGKRSSGWYEGYGMDVWGQGTTVTVSS
VL: DIQMTQSPSSLSASVGDRVTITCRASQSISSYLNWYQQKPGKAPKLLIYAASSLQSGVPSRFSGSGSGTDFTLTISSLQPEDFATYYCQQSDVSPITFGGGTKVEIK
notes: Fab by papain digestion
B7: S-22 (antibody, V domains shown)
VH: B1 VH with R30S, G54I, W59S
VL: B1 VL
notes: IgG
B8: S-15 (antibody, V domains shown)
VH: B4 VH with T32Y, Y54S
VL: B4 VL
notes: IgG
B9: S-2 (antibody, V domains shown)
VH: not shown
VL: B6 VL
notes: IgG; also called S-02
B10: S-22-7 (antibody, V domains shown)
VH: B1 VH with R30S, T57R, W59N
VL: B1 VL
notes: IgG
B11: S-22-9 (antibody, V domains shown)
VH: B1 VH with S31N, G54I, F55G, T57W, W59N
VL: B1 VL
notes: IgG
B12: S-22-3 (antibody, V domains shown)
VH: B1 VH
VL: B1 VL
notes: IgG
B13: S-15-14 (antibody, V domains shown)
VH: B4 VH with T32Q
VL: B4 VL
notes: IgG
B14: recombinant human Progranulin (Adipogen) (ligand, UniProt P28799 18-593, looked up)
chain: TRCPDGQFCPVACCLDPGGASYSCCRPLLDKWPTTLSRHLGGPCQVDAHCSAGHSCIFTVSGTSSCCPFPEAVACGDGHHCCPRGFHCSADGRSCFQRSGNNSVGAIQCPDSQFECPDFSTCCVMVDGSWGCCPMPQASCCEDRVHCCPHGAFCDLVHTRCITPTGTHPLAKKLPAQRTNRAVALSSSVMCPDARSRCPDGSTCCELPSGKYGCCPMPNATCCSDHLHCCPQDTVCDLIQSKCLSKENATTDLLTKLPAHTVGDVKCDMEVSCPDGYTCCRLQSGAWGCCPFTQAVCCEDHIHCCPAGFTCDTQKGTCEQGPHQVPWMEKAPAHLSLPDPQALKRDVPCDNVSSCPSSDTCCQLTSGEWGCCPIPEAVCCSDHQHCCPQGYTCVAEGQCQRGSEIVAGLEKMPARRASLSHPRDIGCDQHTSCPVGQTCCPSLGGSWACCQLPHAVCCEDRQHCCPAGYTCNVKARSCEKEVVSAQPATFLARSPHVGVKDVECGEGHFCHDNQTCCRDNRQGWACCPYRQGVCCADRRHCCPAGFRCAARGTKCLRREAPRWDAPLRDPALRQLL
modifications: biotinylated or DyLight650-labelled in some assays
notes: also called hPGRN; PGRN
B15: biotinylated Progranulin C-terminal peptide (peptide)
peptide: Biotin-TKCLRREAPRWDAPLRDPALRQLL
notes: also called hPGRN peptide

One assay has as its target T1, biotinylated human Sortilin monomer (human, UniProt Q99523 78-755, limits assumed, biotinylated (Sulfo-NHS-biotin)).
T1 construct: monomer cut from the Fc fusion with IdeS; used unbiotinylated in solution in some formats; also called Bt-hSort; b-H Sort
The assay can be described thus: MSD-SET, Fab.
Method: (§1) Antibodies (20 nM in PBS) were coated onto standard bind MSD-ECL plates overnight at 4° C. or at room temperature for 30 min. Plates were then blocked with 1% BSA for 30 min with shaking at 700 rpm, followed by three washes with wash buffer (PB SF+0.05% Tween 20). SET samples were applied and incubated on the plates for 150 s with shaking at 700 rpm followed by one wash. Antigen captured on a plate was detected with 250 ng/ml sulfotag-labeled streptavidin in PBSF by incubation on the plate for 3 min. The plates were washed three times with wash buffer and then read on the MSD Sector Imager 2400 instrument using 1× Read Buffer T with surfactant. The percent free antigen was plotted as a function of titrated antibody in Prism and fit to a quadratic equation to extract the KD. To improve throughput, liquid handling robots were used throughout MSD-SET experiments, including SET sample preparation.
By Kd is commonly meant a measure of binding affinity in units of concentration. On to B1, for which binding was put at a Kd of 0.097 nM.
Still for that read-out and setting: then B2, with 0.098 nM; and B3, with 0.0048 nM.
Still for that read-out and setting: the result for B4 reads 0.26 nM; that for B5, 0.19 nM; that for B6, 0.011 nM.

The next assay has as its target T2, biotinylated mouse Sortilin monomer (mouse, UniProt Q6PHU5 74-754, limits assumed, biotinylated).
T2 construct: also called Bt-msSort
The assay can be described thus: MSD-SET, Fab.
Method: as §1
B1 returned a dissociation constant Kd of 1.2 nM.
Molecule B2 returned a dissociation constant (Kd) of 0.57 nM.
B4 showed a Kd of 0.11 nM.
On the same count and under the same terms, the result for B5 reads 0.1 nM.

The target of the next assay is T1, biotinylated human Sortilin monomer. The assay can be described thus: ForteBio, Fab. (In BLI a coated tip is dipped into the sample, and binding shifts an interference pattern.)
Method: (§2) The affinity of the anti-Sortilin antibodies was determined by measuring their KD by ForteBio and MSD. […] Briefly, ForteBio affinity measurements were performed by loading immunoglobulins (IgGs) on-line onto AHQ sensors. Sensors were equilibrated off-line in assay buffer for 30 min and then monitored on-line for 60 seconds for baseline establishment. For avid binding measurement, sensors with loaded IgGs were exposed to 100 nM antigen (human or mouse Sortilin Fc fusion) for 3 min, afterwards they were transferred to assay buffer for 3 min for off-rate measurement. […] Monovalent binding measurements were obtained by loading human or mouse Sortilin Fc fusion antigens to AHQ sensor and followed by exposure to −100 nM Sortilin antibody Fab. […] Kinetics data were fit using a 1:1 binding model in the data analysis software provided by ForteBio.
B1 showed a dissociation constant Kd of 0.698 nM.
As to B2, the dissociation constant (Kd) was determined as 0.508 nM.
Still for that read-out and setting: the result for B3 reads 0.575 nM.
Still for that read-out and setting: then B4, with 0.943 nM; and B5, with 1.04 nM.
B6 returned a Kd of 0.261 nM.

The next assay deals with T2, biotinylated mouse Sortilin monomer. The assay can be described thus: ForteBio, Fab.
Method: as §2
In turn, B1 had a Kd of 1.43 nM.
Still for that read-out and setting: the result for B2 reads 0.751 nM.
The same measure, in the same setting: the result for B3 reads 3.29 nM.
The same measure, in the same setting: then B4, with 0.769 nM; and B5, with 0.758 nM; and B6, with 7.59 nM.

In the next assay the target is T3, human Sortilin Fc fusion protein (human, UniProt Q99523 78-755).
T3 construct: whole entry named; also called hSort-Fc
The assay can be described thus: ForteBio, avid.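 Further: whole IgG captured on AHQ sensors, then contacted with Sortilin Fc fusion antigen at 100 nM, followed by an off-rate phase in buffer.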
Method: (§3) The affinity for the Sortilin antibodies was determined by measuring their KD by ForteBio. […] Briefly, ForteBio affinity measurements were performed by loading IgGs on-line onto AHQ sensors. Sensors were equilibrated off-line in assay buffer for 30 min and then monitored on-line for 60 seconds for baseline establishment. For avid binding measurement, sensors with loaded IgGs were exposed to 100 nM antigen (human or mouse Sortilin Fc fusion) for 3, afterwards they were transferred to assay buffer for 3 min for off-rate measurement.
(§4) The binding affinity of each anti-Sortilin antibody was determined by measuring their KD by ForteBio or MSD-SET at room temperature. […] Briefly, ForteBio affinity measurements were performed by loading IgGs on-line onto AHQ sensors. Sensors were equilibrated off-line in assay buffer for 30 min and then monitored on-line for 60 seconds for baseline establishment. Sensors with loaded IgGs were exposed to 100 nM antigen for 5 minutes, then transferred to assay buffer for 5 min for off-rate measurement. Kinetics were analyzed using the 1:1 binding model.
For B7, the affinity, expressed as Kd, was 0.99 nM.
B8 registered an equilibrium dissociation constant (Kd) of 2.3 nM.
The same measure, in the same setting: the result for B9 reads 0.517 nM.

The target of the next assay is T4, mouse Sortilin Fc fusion protein (mouse; human, UniProt Q6PHU5 74-754).
T4 construct: whole entry named; also called mSort-Fc
The assay can be described thus: ForteBio, avid.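 Further: whole IgG captured on AHQ sensors, then contacted with Sortilin Fc fusion antigen at 100 nM, followed by an off-rate phase in buffer.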
Method: as §3, §4
With B7, the affinity, expressed as Kd, was 1.12 nM.
Still for that read-out and setting: then B8, with 1.4 nM; and B9, with 1.07 nM.

A further assay has as its target T5, human Sortilin expressed on 293 / HEK293T cells (human, UniProt Q99523 78-830).
T5 construct: full-length recombinant human Sortilin; also called hSort; SORT1
The assay can be described thus: FACS, 293 cells.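 Further: antibodies at 10 µg/ml bound to cells for 1 h on ice, detected with PE-labelled anti-human secondary antibody by flow cytometry, reported as mean fluorescence intensity.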
Method: (§5) Cells were harvested, plated at 10⁵/ml in a 96 well plate, washed, and incubated in 100 μl PBS containing 10 μg/ml Mab and 2% FBS for 1 hour in ice. Cells were then washed twice and incubated in 100 μl PBS+2% FBS containing 5 μg/ml PE-conjugated anti-human secondary antibody for 30 minutes in ice. Cells were washed twice in cold PBS and data was acquired on a BD FACS Canto. Data analysis and calculation of MFI values was performed with FlowJo (TreeStar) software version 10.0.7.
B7 had an MFI of 8940.
The same measure, in the same setting: the result for B8 reads 8740.
Same read-out and setting: then B9, with 8430.

A further assay has as its target T6, mouse Sortilin expressed on 293 / HEK293T cells (mouse, UniProt Q6PHU5 74-825).
T6 construct: full-length recombinant mouse Sortilin; also called mSort; msSort
The assay can be described thus: FACS, 293 cells.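 Further: antibodies at 10 µg/ml bound to cells for 1 h on ice, detected with PE-labelled anti-human secondary antibody by flow cytometry, reported as mean fluorescence intensity.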 For orientation: A flow cytometer gives signals particle by particle.
Method: as §5
For the molecule B7, the MFI came to 23200.
On the same count and under the same terms, then B8, with 17600; and B9, with 22400.

Another assay addresses T5, human Sortilin expressed on 293 / …. The assay can be described thus: FACS, HEK293T + hSort.
Method: (§6) Antibodies were diluted in FACS buffer (PBS+2% FBS+0.01% NaAzide). After incubation on ice for 1 h, cells were washed three times in FACS buffer and incubated with anti-human PE conjugated secondary antibody (BD Biosciences, 1:100 dilution) for 30 min on ice. Then cells were washed twice in 200 ul FACS buffer, and subsequently analyzed on a FACS Canto or iQE FACS screening instrument (Intellicyt Corp).
Consider B10, for which the Kd was determined as 2.65 nM.
On the same count and under the same terms, the result for B11 reads 0.81 nM.
The same measure, in the same setting: then B12, with 1.08 nM; and B13, with 5.25 nM.

A further assay deals with T6, mouse Sortilin expressed on 293 / …. The assay can be described thus: FACS, HEK293T + msSort.
Method: as §6
As to B10, the dissociation constant (Kd) turned out to be 4.78 nM.
Consider B11, for which the equilibrium dissociation constant (Kd) came out at 5.12 nM.
On the same count and under the same terms, then B12, with 3.63 nM; and B13, with 19.4 nM.

The target of a further assay is T5, human Sortilin expressed on 293 / …. The assay can be described thus: cell binding, HEK293T, FACS.
Turning to B7, the Kd is 2.4 nM.
With B8, the Kd is 3.3 nM.
The same measure, in the same setting: the result for B9 reads 1.1 nM.

A further assay addresses T6, mouse Sortilin expressed on 293 / …. The assay can be described thus: cell binding, HEK293T, FACS.
On to B7, for which binding was characterised by a dissociation constant (Kd) of 5 nM.
Still for that read-out and setting: the result for B8 reads 6.4 nM; that for B9, 6.6 nM.

A further assay concerns the target T7, recombinant human Sortilin, His-tagged (R&D Systems) (human, UniProt Q99523 78-755).
T7 construct: bought; whole entry named; also called His-captured SORT1
The assay can be described thus: Biacore SPR, His-captured Sortilin. On the technique in general: Surface plasmon resonance follows binding to a sensor surface in real time, without labels.
In the case of B14, the Kd amounted to 14.3 nM.

Another assay concerns the target T7, recombinant human Sortilin, His-tagged …. The assay can be described thus: ELISA, biotinylated PGRN on immobilized Sortilin.
B14: the Kd was found to be 14 nM.

The target of another assay is T1, biotinylated human Sortilin monomer. The assay can be described thus: ForteBio, peptide format: human Sortilin monomer (100 nM) on biotinylated PGRN peptide on SA sensors.
Method: SA sensors were soaked in PBS for 10 min prior to analysis. […] The data was prepared for analysis with ForteBio Data Analysis Software version 8.1.0.36 as follows. The data was y-axis aligned and inter-step corrected to the beginning of the Sortilin capture step and then cropped to show only the Sortilin capture and antibody interaction steps.
For the molecule B15, the binding result is given as “binds”.

The target of a further assay is T6, mouse Sortilin expressed on 293 / …. The assay can be described thus: FACS, time course of binding and endocytosis of human PGRN-DyLight650 by HEK293T cells expressing mouse Sortilin.
As for B14, the binding result is given as “binds”.
